Source: PMC10023157, “Peptides that Mimic RS repeats modulate phase separation of SRSF1, revealing a reliance on combined stacking and electrostatic interactions”

What was measured:
Experiment in all cases: not stated; Fluorescence polarization: 100 mM ER4 peptide, 400 mM Arg/Glu, pH 6.5; temperature not stated; three technical replicates
Details in all cases: protein: recombinant; tags: SUMO (pSMT3) His tag removed by Ulp1
[1] = target: SRSF1 T248C (human, UniProt Q07955 1-248, C16S;C148S;T248C)
[2] = target: SRSF1 NoC (human, UniProt Q07955 1-248, C16S;C148S)
[3] = target: SRSF1 N220C (human, UniProt Q07955 1-248, C16S;C148S;N220C)

Measured: binding result

Sequence of SRSF1 T248C (Q07955 whole entry C16S/C148S/T248C): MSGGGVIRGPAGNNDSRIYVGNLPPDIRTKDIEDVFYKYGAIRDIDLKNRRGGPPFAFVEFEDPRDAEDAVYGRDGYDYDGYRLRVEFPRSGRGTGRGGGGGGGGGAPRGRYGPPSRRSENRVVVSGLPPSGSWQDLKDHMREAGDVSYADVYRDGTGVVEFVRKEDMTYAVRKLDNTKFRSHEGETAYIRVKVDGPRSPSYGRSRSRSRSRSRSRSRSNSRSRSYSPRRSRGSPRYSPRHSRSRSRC
Sequence of SRSF1 N220C (Q07955 whole entry C16S/C148S/N220C): as the sequence (Q07955 whole entry C16S/C148S/T248C) above, with N220C, C248T counted along it
Sequence of SRSF1 NoC (Q07955 whole entry C16S/C148S): as the sequence (Q07955 whole entry C16S/C148S/T248C) above, with C248T counted along it

UCAGAGGA (ssRNA) [UCAGAGGA (SRSF1 cognate RNA)]
binds: all assays above
